According to US20240011046A1 (UNIVERSITY OF PITTSBURGH OF THE COMMONWEALTH SYSTEM OF …, published 2024):

B1: mmTGF-β2-7M (designed binder)
chain: ALDAAYCFRNVQDNCCLRPLYIDFRKDLGWKWIHEPKGYNANFCAGACPYRASKSPSCVSQDLEPLTIVYYVGRKPKVEQLSNMIVKSCKCS
notes: also called dnTGFβ2^mm; mini-monomer
B2: mmTGF-β2-2M-Del8-17 (designed binder)
chain: ALDAAYVFRNVQDNCALRPLYIDFRRDLGWKWIHEPKGYNANFCAGACPYRASKSPSCVSQDLEPLTILYYIGRTPKIEQLSNMIVKSCKCS
notes: The 8-17 disulfide is eliminated; also called mmTGF-β2-2M-De18-17; mmTGF-β2-2M-De18_17
B3: mmTGF-β2-7M2R (designed binder)
chain: ALDAAYCFRNVQDNCCLRPLYIDFRKDLGWKWIHEPKGYNANFCAGACPYRASKSPRCRSQDLEPLTIVYYVGRKPKVEQLSNMIVKSCKCS
notes: Made to reduce aggregation
B4: mmTGF-β2-7M-PRDC (designed binder)
chain: KEVLASSQEALVVTERKYLKSDWCKLRPLYIDFRKDLGWKWIHEPKGYNANFCYGQCNSFYIPRHVKKEEDSFQSSAFCVSQDLEPLTIVYYVGRKPKVEQLSNMIVKSCRCMSV

How the values were obtained:
[1] = target: T1, TGF-β type II receptor (TβRII) (UniProt P37173 38-159); test: ITC: TβRII injected into the monomer, three replicate titrations globally fit to a 1:1 binding model (reference control)
T1 construct: Soluble protein: injected in ITC, and 2 µg run on the native gel; also called TGF-β receptor II; transforming growth factor-β type 2 receptor
Description: (§1) In order to evaluate the ability of the mmTGF-β2-7M variants described herein (mmTGF-β2-7M2R (SEQ ID NO: 9), mmTGF-β2-2M-De18-17 (SEQ ID NO: 10), and mmTGF-β2-7M-PRDC (SEQ ID NO: 11)) to bind TβRII, isothermal titration calorimetry (ITC) and native gels were used. The ITC binding experiments were performed by injecting increasing amounts of TβRII into mmTGF-β2-7M2R (SEQ ID NO: 9) or mmTGF-β2-2M-De18-17 (SEQ ID NO: 10), with mmTGF-β2-7M (SEQ ID NO: 7) used a reference control. These titrations yielded readily detectable isotherms with a large negative enthalpy and a near 1:1 binding stoichiometry (FIG. 8).

[2] = target: TGF-β receptor II (TβRII) on the HEK-293 TGF-β CAGA-Luc reporter cells (UniProt P37173 23-567, limits assumed); test: cell-based or functional assay
[3] = target: T1, TGF-β type II receptor (TβRII); test: ITC: TβRII injected into the monomer, three replicate titrations globally fit to a 1:1 binding model
Description: as §1

TGF-β receptor II (TβRII) on the HEK-293 TGF-β CAGA-Luc reporter cells, sequence (P37173 23-567 limits assumed): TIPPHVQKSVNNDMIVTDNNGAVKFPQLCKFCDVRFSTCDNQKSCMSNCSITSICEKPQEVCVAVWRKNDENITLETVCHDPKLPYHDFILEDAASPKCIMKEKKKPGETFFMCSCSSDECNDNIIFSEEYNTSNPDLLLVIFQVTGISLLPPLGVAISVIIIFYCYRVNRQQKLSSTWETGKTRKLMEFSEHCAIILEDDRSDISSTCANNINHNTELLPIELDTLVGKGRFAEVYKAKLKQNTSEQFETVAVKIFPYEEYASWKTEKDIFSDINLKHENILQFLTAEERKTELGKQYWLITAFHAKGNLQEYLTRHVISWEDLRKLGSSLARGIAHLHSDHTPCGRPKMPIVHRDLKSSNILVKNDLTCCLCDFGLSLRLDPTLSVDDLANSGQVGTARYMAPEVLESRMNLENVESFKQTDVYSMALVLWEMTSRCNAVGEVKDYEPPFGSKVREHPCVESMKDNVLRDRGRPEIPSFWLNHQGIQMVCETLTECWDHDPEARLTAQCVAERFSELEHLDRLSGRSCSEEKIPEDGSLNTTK
T1 sequence (P37173 38-159 limits assumed): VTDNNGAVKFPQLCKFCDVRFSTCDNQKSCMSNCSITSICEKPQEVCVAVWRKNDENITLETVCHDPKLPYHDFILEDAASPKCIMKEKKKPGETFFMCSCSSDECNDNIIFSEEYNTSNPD

Kd [1] | HEK-293 CAGA-Luc TGF-β reporter assay, inhibition of signaling stimulated by 10 pM TGF-β3, IC50 [2] | Kd [3] | HEK-293 CAGA-Luc TGF-β reporter assay, IC50 relative to mmTGF-β2-7M [2] | Binder
60.5 nM | 58.2 nM | – | – | B1
– | 111 nM | 80.1 nM | – | B2
– | 53.3 nM | 75.1 nM | – | B3
– | 282 nM | – | ~5 fold | B4
